Read-outs that look alike come from different tables or passages of the source. Non-standard residues stand in square brackets, D forms with d. fluorescein = fluorescein: fluorescein label on the Lys side chain; code γ = not defined here
T1: cNPF2Flu (reading uncertain)
T1 chain: cyclo(YNPFEE[code γ]K(fluorescein))

T2: cNPF1Flu
T2 chain: cyclo(YNPFEEGK(fluorescein))

T3: cNPF6Flu
T3 chain: cyclo(YNPFEQGK(fluorescein))

T4: cAPAFlu
T4 chain: cyclo(YAPAEEGK(fluorescein))

T5: cNPF4Flu
T5 chain: cyclo(YNPFAEGK(fluorescein))

T6: cNPF3Flu
T6 chain: cyclo(YNPFEEK(fluorescein))

T7: cNPF5Flu
T7 chain: cyclo(YNPFEAGK(fluorescein))

T8: cNPF1 (head-to-tail cyclic)
T8 chain: YNPFEEGG

T9: cAPA (head-to-tail cyclic)
T9 chain: YAPAEEGG

T10: cNPF1B (SMILES CC(=O)NCCCC[C@@H]1NC(=O)CNC(=O)[C@H](CCC(=O)O)NC(=O)[C@H](CCC(=O)O)NC(=O)[C@H](Cc2ccccc2)NC(=O)[C@@H]2CCCN2C(=O)[C@H](CC(N)=O)NC(=O)[C@H](Cc2ccc(O)cc2)NC1=O)
T10 chain: cyclo(YNPFEEGK(Ac))

B1: EHD1 EH domain EH (protein)
chain: VGKDKPTYDEIFYTLSPVNGKITGANAKKEMVKSKLPNTVLGKIWKLADVDKDGLLDDEEFALANHLIKVKLEGHELPADLPPHLVPPSKRRHE

Columns and labels:
dynamin GTPase activity = conditions: biochemical assay of dynamin GTPase activity; cited from earlier work
cNPF2Flu [1] = target: T1, cNPF2Flu; assay: fluorescence polarization
cNPF1Flu [2] = target: T2, cNPF1Flu; assay: fluorescence polarization
cNPF6Flu [3] = target: T3, cNPF6Flu; assay: fluorescence polarization
cAPAFlu = target: T4, cAPAFlu; assay: fluorescence polarization
cNPF4Flu [4] = target: T5, cNPF4Flu; assay: fluorescence polarization
cNPF3Flu [5] = target: T6, cNPF3Flu; assay: fluorescence polarization
cNPF5Flu [6] = target: T7, cNPF5Flu; assay: fluorescence polarization
cNPF2Flu [7] = target: T1, cNPF2Flu; assay: fluorescence polarization
cNPF1Flu [8] = target: T2, cNPF1Flu; assay: fluorescence polarization
cNPF6Flu [9] = target: T3, cNPF6Flu; assay: fluorescence polarization
cNPF4Flu [10] = target: T5, cNPF4Flu; assay: fluorescence polarization
cNPF3Flu [11] = target: T6, cNPF3Flu; assay: fluorescence polarization
cNPF5Flu [12] = target: T7, cNPF5Flu; assay: fluorescence polarization
cNPF1 [13] = target: T8, cNPF1; assay: ITC
cNPF1 [14] = target: T8, cNPF1; assay: fluorescence polarization competition
cAPA = target: T9, cAPA; assay: fluorescence polarization competition
cNPF1B = target: T10, cNPF1B; assay: fluorescence polarization competition

Molecule | IC50 (dynamin GTPase activity) [µM] | Kd (cNPF2Flu [1]) [µM] | Kd (cNPF1Flu [2]) [µM] | Kd (cNPF6Flu [3]) [µM] | Kd (cAPAFlu) [µM] | Kd (cNPF4Flu [4]) [µM] | Kd (cNPF3Flu [5]) [µM] | Kd (cNPF5Flu [6]) [µM] | Kd (cNPF2Flu [7]) [µM] | Kd (cNPF1Flu [8]) [µM] | Kd (cNPF6Flu [9]) [µM] | Kd (cNPF4Flu [10]) [µM] | Kd (cNPF3Flu [11]) [µM] | Kd (cNPF5Flu [12]) [µM] | Kd (cNPF1 [13]) [µM] | IC50 (cNPF1 [14]) [µM] | IC50 (cAPA) [µM] | IC50 (cNPF1B) [µM]
O=C(N/N=C/c1ccc(O)c(O)c1)c1cc2ccccc2cc1O [dynasore] | ~15 |  |  |  |  |  |  |  |  |  |  |  |  |  |  |  |  | 
B1 |  | 4.5 | 3.3 | 12.8 | > 67 | 17.4 | 11.3 | 8.7 | 20.5 | 16.8 | 34 | 46.7 | 57.8 | 28.3 | 9.9 | 49.2 | > 450 | 100

Source: publication PMC4116148 (Biochemistry, 2014)
